# Data from the supplement of paper PMC10724198.
# ± gives the standard deviation of the averaged measurements.
# Tested on: Saccharomyces cerevisiae
# Assay: protein stability index of tFT-peptide fusion (C-terminal peptide) (PSI (0-1 scale)); higher = more stable (slower turnover)
# Settings: genetic background: wild type; temperature: 30 C
# Description: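 Multiplexed protein stability (MPS) profiling in S. cerevisiae. Random 12-aa peptides (tFT-X12 library) are fused to the C-terminus of a sfGFP-mCherry tandem fluorescent timer, after mCherry and a GGGS linker. Cells are FACS-sorted into 8 mCherry/sfGFP bins and deep-sequenced. The protein stability index (PSI) is the read-weighted bin average, scaled from 0 (unstable) to 1 (stable). Only peptides with >10 reads are reported; cells were grown at 30 °C in SC-His with glucose.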
# 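Further: PSI is a weighted mean of sequencing reads over stability bins, variants kept only with over 10 reads, mCherry proximal and sfGFP distal, peptide attached via GGGS linker.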
row,Sequence,protein stability index
1,ARPVPRAPSRYA,0.647 ± 0.047
2,ARRTEEVVLRSL,0.693 ± 0.059
3,ARSERVVPKMQS,0.732 ± 0.043
4,ARSGDSGQPPSQ,0.689 ± 0.05
5,ARSPSPLPSPPP,0.702 ± 0.018
6,ARVPPFPCHPTL,0.686 ± 0.03
7,ARVRAREGGDRG,0.624 ± 0.0076
8,ASDSNPLDPADD,0.708 ± 0.011
9,ASEHRPPRPHER,0.683 ± 0.071
10,ASFPPVHPALSP,0.664 ± 0.035
11,ASIRLSPSWVQR,0.652 ± 0.0081
12,ASLLGLLIHLGR,0.6951 ± 0.0059
13,ASNPGPLTPPQP,0.705 ± 0.0087
14,ASPCTVAQDPRT,0.621 ± 0.023
15,ASPFASCPPSLP,0.714 ± 0.037
16,ASPPAYGPPPPP,0.6806 ± 0.0035
17,ASPSPLPPLPPP,0.718 ± 0.1
18,ASPYTVTPLTNS,0.693 ± 0.016
19,ASSLSHLSLPAP,0.695 ± 0.017
20,ASSLSPSTFFCL,0.642 ± 0.015
21,ASSVVGLEERVR,0.728 ± 0.049
22,ASTCLKFTPTIF,0.883 ± 0.1
23,ASTSPSASSSPP,0.727 ± 0.024
24,ASVLGGLFRDRV,0.773 ± 0.057
25,ASVSVWLVFSGG,0.594 ± 0.0075
26,ASYGHCTTCRRT,0.717 ± 0.021

row,Sequence,protein stability index
1,ASYGTRHSAPSV,0.678 ± 0.0076
2,ASYSFLSFCNRV,0.631 ± 0.015
3,ATACSIMISNAV,0.662 ± 0.029
4,ATKAKKGTMSHE,0.652 ± 0.051
5,ATPPSPLPPSPP,0.754 ± 0.061
6,ATQVGGPTHSHP,0.7016 ± 0.0031
7,ATRLFSSNLFLR,0.576 ± 0.051
8,ATSFSLLPACFS,0.686 ± 0.0007
9,ATYNASLERLRP,0.719 ± 0.2
10,AVAETCEQAGRG,0.675 ± 0.066
11,AVAYMAHLPITR,0.69 ± 0.019
12,AVCGSISSWMWF,0.696 ± 0.0092
13,AVFSWVTAGQCD,0.684 ± 0.027
14,AVGQAGITSLVL,0.699 ± 0.029
15,AVLGWAGGGWAG,0.694 ± 0.11
16,AVLPSLWLWTKK,0.682 ± 0.095
17,AVPITRLPSPSP,0.6668 ± 0.0047
18,AVPSAPPNPDAS,0.704 ± 0.046
19,AVRDGSGCQCVG,0.6797 ± 0.0012
20,AVRGCGVGSGWR,0.713 ± 0.02
21,AVRYFKLCRSCL,0.65 ± 0.012
22,AVTLAPPRLRPL,0.761 ± 0.029
23,AVTSLGGGIILN,0.659 ± 0.045
24,AVWNWEEVWLSG,0.654 ± 0.023
25,AWGRRGGRMKVG,0.62 ± 0.022
26,AWGWGGTGSAGA,0.71 ± 0.0097

row,Sequence,protein stability index
1,AWGWPWGHGFVV,0.738 ± 0.047
2,AWLLWGPVLRGI,0.694 ± 0.051
3,AYLPSLPPLGGI,0.717 ± 0.06
4,AYRITRSRGTEF,0.7233 ± 0.0036
5,CAGPLLIPPLSL,0.6895 ± 0.0042
6,CAIGECRGAGVS,0.679 ± 0.032
7,CAIGTGTKVKPS,0.684 ± 0.016
8,CALCRLGVAWVS,0.596 ± 0.021
9,CAPTFSYSLVLS,0.514 ± 0.036
10,CARAAFRGYYAQ,0.744 ± 0.074
11,CASPLHPCPKST,0.6542 ± 0.0023
12,CCGDAVVGPRVV,0.711 ± 0.041
13,CCGSSPLPPFTS,0.724 ± 0.055
14,CCISCSVCKDGS,0.6183 ± 0.00094
15,CCLSGGFFLFGL,0.622 ± 0.062
16,CCPVTLLLPFPL,0.606 ± 0.01
17,CCRRWSLEWGRG,0.717 ± 0.038
18,CCVGVGTRLGFA,0.646 ± 0.082
19,CCVKRARVPHFV,0.6159 ± 0.0014
20,CDEVEGVLLVRG,0.707 ± 0.047
21,CDFVFEFSCVQV,0.577 ± 0.025
22,CDRAYSPLSRHN,0.6848 ± 0.0063
23,CDVLNQTRKRHK,0.7028 ± 0.0019
24,CEVGSKGCACRV,0.649 ± 0.025
25,CFFGSILYLCFG,0.5331 ± 0.0045
26,CFLLCLSSSPVL,0.64 ± 0.029

row,Sequence,protein stability index
1,CFPYFCGFLGPL,0.697 ± 0.031
2,CFVIFFSSPGVC,0.583 ± 0.03
3,CGAAFRSWTVRG,0.653 ± 0.067
4,CGAVDTETWWGG,0.642 ± 0.024
5,CGGAVMREGQVG,0.681 ± 0.013
6,CGGGGASGAIAR,0.668 ± 0.013
7,CGGGRSTAWERS,0.63 ± 0.015
8,CGGVLAQREVSG,0.637 ± 0.021
9,CGIAGVKSLGLC,0.717 ± 0.039
10,CGSCFIKRFGGG,0.631 ± 0.034
11,CGSTRGDCVGIW,0.705 ± 0.05
12,CGTYFRLTRCAV,0.577 ± 0.043
13,CGVLPTPDRHHS,0.631 ± 0.084
14,CGWAWGWRESKM,0.723 ± 0.1
15,CHPFQAAVPIYL,0.581 ± 0.12
16,CHRSSPPPPPPT,0.711 ± 0.046
17,CIFTVINNTPYC,0.801 ± 0.12
18,CISCVVDSPLSV,0.712 ± 0.045
19,CISGRGIYAKAF,0.699 ± 0.043
20,CLGSVFYCCWNF,0.648 ± 0.025
21,CLHFSFFTFENF,0.67 ± 0.02
22,CLPFSCFLLTPR,0.692 ± 0.014
23,CLPTGMSKFPDF,0.683 ± 0.029
24,CLRFPALPRRHP,0.772 ± 0.017
25,CLSHSIYYSFSF,0.691 ± 0.086
26,CLVLDILSETWL,0.71 ± 0.036

row,Sequence,protein stability index
1,CLWCCFTDCCDT,0.762 ± 0.011
2,CLWLALMSIFLP,0.539 ± 0.03
3,CLWTSAQVPFQT,0.703 ± 0.0081
4,CMASCTRSYYRL,0.661 ± 0.005
5,CPAPCPPLPPHV,0.71997 ± 0.00064
6,CPCPSHLLLRSP,0.659 ± 0.0084
7,CPDGSGWLARGC,0.661 ± 0.11
8,CPFPPPPCPPPL,0.665 ± 0.02
9,CPGGRKPRQTAG,0.679 ± 0.14
10,CPGPPSLSPRPS,0.672 ± 0.029
11,CPLPIKANLSFP,0.705 ± 0.037
12,CPLPPPRPLLSA,0.651 ± 0.026
13,CPPPPPPPPSRC,0.704 ± 0.036
14,CPPRIVRPRGVK,0.6775 ± 0.0019
15,CPRAPKTPISGI,0.635 ± 0.049
16,CPRPPPPTACPV,0.641 ± 0.1
17,CPSAPHNTLSTG,0.68 ± 0.052
18,CQERKLKNQPMV,0.607 ± 0.054
19,CQILLSYSGYPH,0.589 ± 0.021
20,CQWLIVEWEEKG,0.662 ± 0.083
21,CRAGSVGGIRGR,0.693 ± 0.015
22,CRPTGSSTRFQL,0.718 ± 0.01
23,CRWGGGGRRGRG,0.723 ± 0.025
24,CSAHVPAPHSYR,0.704 ± 0.061
25,CSDGAFELRRDG,0.544 ± 0.078
26,CSDISASTVSRL,0.715 ± 0.039

row,Sequence,protein stability index
1,CSKLYGAFANTF,0.644 ± 0.1
2,CSKRTGRKSVTY,0.7299 ± 0.0063
3,CSLSGAFLNQAR,0.6842 ± 0.0041
4,CSPCSFCDLVSH,0.691 ± 0.03
5,CSSGGFSLFDEA,0.7504 ± 0.0024
6,CSWLVEWVLSFS,0.5417 ± 0.0041
7,CTAWGGWWTGRR,0.743 ± 0.16
8,CTCGDFHRAWVS,0.667 ± 0.01
9,CTCTVSMLPRTC,0.639 ± 0.017
10,CTFSGSHGSFPS,0.717 ± 0.028
11,CTHYFSNSCLLR,0.604 ± 0.063
12,CTICQLASKAIC,0.599 ± 0.04
13,CTRGVVSPKLFV,0.786 ± 0.17
14,CTRLSQTSMGRG,0.696 ± 0.043
15,CTSCDVFVFCPF,0.708 ± 0.036
16,CVAFLPISSFTS,0.76 ± 0.07
17,CVAGSARVCDVR,0.627 ± 0.083
18,CVDWGAVGLVAG,0.598 ± 0.018
19,CVGFVVVGGVLG,0.667 ± 0.05
20,CVGGFLEGIRLG,0.711 ± 0.041
21,CVGVEDFFFACF,0.703 ± 0.029
22,CVVRSGIGFSLL,0.741 ± 0.026
23,CWAGKITAKIDV,0.666 ± 0.0085
24,CWRDTSSPSVLD,0.682 ± 0.041
25,CYCTYHDQDSVS,0.757 ± 0.032
